Laboratory results taken from patent US20220185900A1 (Regeneron, published 2022).

T1: Macaca fascicularis (mf) RET.mmh (Macaca fascicularis)
T1 construct: also called monkey RET
T1 chain: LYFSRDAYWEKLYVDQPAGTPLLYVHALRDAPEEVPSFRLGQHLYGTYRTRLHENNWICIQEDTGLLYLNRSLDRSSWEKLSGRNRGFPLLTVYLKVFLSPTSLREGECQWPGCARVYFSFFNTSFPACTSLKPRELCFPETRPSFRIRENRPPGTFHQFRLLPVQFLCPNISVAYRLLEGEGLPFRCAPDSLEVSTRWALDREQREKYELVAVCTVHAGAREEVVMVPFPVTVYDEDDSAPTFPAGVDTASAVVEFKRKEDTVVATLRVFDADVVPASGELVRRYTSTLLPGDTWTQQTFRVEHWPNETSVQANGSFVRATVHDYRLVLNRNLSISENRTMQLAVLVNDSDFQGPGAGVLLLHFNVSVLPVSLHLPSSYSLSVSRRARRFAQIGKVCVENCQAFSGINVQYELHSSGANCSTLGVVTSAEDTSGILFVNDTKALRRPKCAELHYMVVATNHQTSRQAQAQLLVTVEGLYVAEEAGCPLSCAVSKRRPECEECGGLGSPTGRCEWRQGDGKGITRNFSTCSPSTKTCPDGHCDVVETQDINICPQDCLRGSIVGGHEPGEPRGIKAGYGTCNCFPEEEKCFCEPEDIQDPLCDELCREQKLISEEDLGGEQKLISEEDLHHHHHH


Key:
hRET.mmh [1] = target: T2, hRET.mmh (human, UniProt P07949 29-635, biotinylated in the ELISA of Example 4 (biot-hRET.mmh); not in the SPR of Example 3); experiment: SPR Biacore T200, mAb capture, 25 C
T2 construct: also called biot-hRET.mmh; soluble monomeric human RET
Description: (§1) Binding affinities and kinetic constants of human anti-RET antibodies were determined by surface plasmon resonance (Biacore T200) at […] (Tables 2-3). […] Binding equilibrium dissociation constants (KD) and dissociative half-lives (t_{1/2}) were calculated from the kinetic rate constants as: KD [M]=kd/kₐ; and t_{1/2}(min)=(ln2/(60*kd). Calculations were performed using BiacoreT200 evaluation software v1.0.

[2] = target: T1, Macaca fascicularis (mf) RET.mmh; experiment: SPR Biacore T200, mAb capture, 25 C
Description: as §1

hRET.mFc [3] = target: T3, hRET.mFc (human); experiment: SPR Biacore T200, mAb capture, 25 C
T3 construct: also called dimeric human RET
Description: as §1

hRET.mmh [4] = target: T2, hRET.mmh; experiment: SPR Biacore T200, mAb capture, 37 C
Description: as §1

[5] = target: T1, Macaca fascicularis (mf) RET.mmh; experiment: SPR Biacore T200, mAb capture, 37 C
Description: as §1

hRET.mFc [6] = target: T3, hRET.mFc; experiment: SPR Biacore T200, mAb capture, 37 C
Description: as §1

hRET.mmh [7] = target: T2, hRET.mmh; experiment: competition sandwich ELISA: 1 nM biot-hRET.mmh + antibody, plate-coated GDNF/GFRα1 co-complex
Description: The ability of anti-RET antibodies to block the binding of human RET to pre-complexed plate bound GDNF:GFRα1 was assessed using a competition sandwich ELISA.
Antibody-RET mixtures were incubated for 1 hour at RT and then transferred to microtiter plates previously coated with the hGDNF/hGFRα1 co-complex. Binding was allowed to proceed for 1 hr at RT followed by extensive washing. […] Plates were read at 450 nm and data analysis used a sigmoidal dose-response model within Prism™ software.
The absorbance values of the wells containing the highest concentration for each antibody were used to determine the blocking percent at maximum concentration antibody tested.

| Binder | Kd (hRET.mmh [1]) [nM] | koff (hRET.mmh [1]) [s⁻¹] | kon (hRET.mmh [1]) [M⁻¹ s⁻¹] | t½ (hRET.mmh [1]) [min] | Kd [2] [nM] | koff [2] [s⁻¹] | kon [2] [M⁻¹ s⁻¹] | t½ [2] [min] | Kd (hRET.mFc [3]) [nM] | koff (hRET.mFc [3]) [s⁻¹] | kon (hRET.mFc [3]) [M⁻¹ s⁻¹] | t½ (hRET.mFc [3]) [min] | Kd (hRET.mmh [4]) [nM] | koff (hRET.mmh [4]) [s⁻¹] | kon (hRET.mmh [4]) [M⁻¹ s⁻¹] | t½ (hRET.mmh [4]) [min] | Kd [5] [nM] | koff [5] [s⁻¹] | kon [5] [M⁻¹ s⁻¹] | t½ [5] [min] | further results |
| --- | --- | --- | --- | --- | --- | --- | --- | --- | --- | --- | --- | --- | --- | --- | --- | --- | --- | --- | --- | --- | --- |
| H4H8044P (antibody, human IgG4, V domains shown, human IgG4 Fc (H4H prefix)) VH: QVQLVESGGGVVQPGRSLRLSCAASGFTFSGSGMHWVRQAPGKGLEWVAVIWEDGSNKYYADSVRGRFTISRDNFKNTLYLQMNSLRAEDTAVYYCARQTMVRGVIRFYYYYYGMDVWGQGTTVTVSS VL: not shown | 5.49 | 0.000488 | 88800 | 24 | 14.7 | 0.00135 | 92000 | 9 | 1.97 | 0.000211 | 107000 | 55 | 18.6 | 0.00281 | 151000 | 4 | 48.5 | 0.00521 | 108000 | 2 | Kd (hRET.mFc [6]): 6.21 nM; koff (hRET.mFc [6]): 0.00085 s⁻¹; kon (hRET.mFc [6]): 137000 M⁻¹ s⁻¹; t½ (hRET.mFc [6]): 14 min; % Max Blocking (hRET.mmh [7]): 91%; IC50 (hRET.mmh [7]): 5.2 nM |
| H4H8079P (antibody, human IgG4, V domains shown, human IgG4 Fc (H4H prefix)) VH: EVQLVESGGGLVKPGGSLRLSCAASGFTFSNAWMSWVRQAPGKGLEWVGRIKSKTDGGTSEYAAPVKGRFTISRDDSKNTLFLQMNSLKSEDAAVYYCTTGRSWSDYFDFWGQGTLVTVSS VL: not shown | 2.68 | 0.000384 | 143000 | 30 | 3.73 | 0.000435 | 117000 | 27 | 0.72 | 0.000151 | 209000 | 77 | 9.1 | 0.00189 | 207000 | 6 | 13.3 | 0.00205 | 154000 | 6 | Kd (hRET.mFc [6]): 2 nM; koff (hRET.mFc [6]): 0.000523 s⁻¹; kon (hRET.mFc [6]): 261000 M⁻¹ s⁻¹; t½ (hRET.mFc [6]): 22 min; % Max Blocking (hRET.mmh [7]): 93%; IC50 (hRET.mmh [7]): < 0.25 nM |

Now those with a lower Kd (hRET.mmh [1]), led by results:

| Kd (hRET.mmh [1]) [nM] | koff (hRET.mmh [1]) [s⁻¹] | kon (hRET.mmh [1]) [M⁻¹ s⁻¹] | t½ (hRET.mmh [1]) [min] | Kd [2] [nM] | koff [2] [s⁻¹] | kon [2] [M⁻¹ s⁻¹] | t½ [2] [min] | Kd (hRET.mFc [3]) [nM] | koff (hRET.mFc [3]) [s⁻¹] | kon (hRET.mFc [3]) [M⁻¹ s⁻¹] | t½ (hRET.mFc [3]) [min] | Kd (hRET.mmh [4]) [nM] | koff (hRET.mmh [4]) [s⁻¹] | kon (hRET.mmh [4]) [M⁻¹ s⁻¹] | t½ (hRET.mmh [4]) [min] | Kd [5] [nM] | koff [5] [s⁻¹] | kon [5] [M⁻¹ s⁻¹] | t½ [5] [min] | Binder | further results |
| --- | --- | --- | --- | --- | --- | --- | --- | --- | --- | --- | --- | --- | --- | --- | --- | --- | --- | --- | --- | --- | --- |
| 0.984 | 0.000301 | 306000 | 38 | 1.13 | 0.000315 | 278000 | 37 | 0.645 | 0.000181 | 280000 | 64 | 1.81 | 0.0013 | 718000 | 9 | 1.92 | 0.00135 | 704000 | 9 | H4H8046P (antibody, human IgG4, V domains shown, human IgG4 Fc (H4H prefix)) VH: QVQLVQSRDEVKKPGASVKVSCKASGYTFTTYGISWVRQAPGQGLEWMGWINTYNGDTNYAQKVQDRVIMTTDTSTSTAYMELRSLRSDDTAVYFCAGARPLGGRRAFDIWGQGTMVTVSS VL: DIQMTQSPSSLSASVGDRVTITCRASQGISHYLAWYQQKPGKVPKLLIYAASTLQSGVPSRFSGSGSGTDFTLTISSLQPEDVATYYCQKYNSVPWTFGQGTKVEIK | Kd (hRET.mFc [6]): 2.05 nM; koff (hRET.mFc [6]): 0.000694 s⁻¹; kon (hRET.mFc [6]): 338000 M⁻¹ s⁻¹; t½ (hRET.mFc [6]): 17 min; % Max Blocking (hRET.mmh [7]): 95%; IC50 (hRET.mmh [7]): < 0.25 nM |
| 0.883 | 0.000246 | 279000 | 47 | 14.6 | 0.0028 | 192000 | 4 | 0.229 | 8.71e-05 | 381000 | 133 | 3.22 | 0.00127 | 395000 | 9 | 50.3 | 0.0131 | 261000 | 1 | H4H8045P (antibody, human IgG4, V domains shown, human IgG4 Fc (H4H prefix)) VH: EVQLVESGGALVQPGGSLRLSCAASGFTFSNYAMTWVRQAPGMGLEWVSGISSSGASTFYADSVKGRFTISRDNSKNTLYLQMNSLRAEDTAVYYCAKEDYWGWFDYWGQGTLVTVSS VL: DIQLTQSPSFLSASVGDRVTITCWASQDVSSYLAWYQQEPGKAPKVLIYDASTLQSGVPSRFSGSGSGTEFTLTISSLQPEDFAPYYCQQLNSYPYTFGQGTKLEIK | Kd (hRET.mFc [6]): 0.834 nM; koff (hRET.mFc [6]): 0.000382 s⁻¹; kon (hRET.mFc [6]): 459000 M⁻¹ s⁻¹; t½ (hRET.mFc [6]): 30 min; % Max Blocking (hRET.mmh [7]): 75%; IC50 (hRET.mmh [7]): 0.34 nM |
